Legend:
[1] = molecular target: T1, recombinant HMG1 produced in E. coli as a calmodulin binding protein (CBP) fusion (human); experiment: cell-based or functional assay
[2] = molecular target: T2, HMG2 coated on ELISA plates (Bos taurus (Bovine), UniProt P40673 2-209); experiment: direct ELISA, HMGB2 coated at 5 ug/mL, OD 490
T2 construct: also called HMGB2; HMBG2
T2 sequence: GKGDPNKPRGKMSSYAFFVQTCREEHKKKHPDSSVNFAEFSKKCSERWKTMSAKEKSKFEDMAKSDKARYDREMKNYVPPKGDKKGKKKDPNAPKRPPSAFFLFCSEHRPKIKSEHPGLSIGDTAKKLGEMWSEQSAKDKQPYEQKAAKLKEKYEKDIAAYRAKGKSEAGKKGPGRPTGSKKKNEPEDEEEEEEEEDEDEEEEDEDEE
Description: (§1) Binding to HMG1 vs. HMG2: Ultra high-binding ELISA plates (ThermoLab systems, #3855) were coated with either 5 ug/mL of Calf thymus HMGB1 or HMBG2 diluted in 10 mM Phosphate buffered saline (PBS), pH 7.2 and incubate overnight at 4 degrees. The plates were washed twice with Ca and Mg free PBS and 100 microliters of anti-HMGB1 antibody diluted in 10 mM PBS, pH 7.2+1% bovine serum albumin (BSA) to a final concentration of 10 ug/mL was added to each well and the plates were incubated 1 hour at room temperature. The wells were washed three times with 100 μl of PBS, pH 7.2. HRP labeled goat-anti-human IgG Kappa-chain (KPL, #14-10-10) and goat-anti-human IgG Lambda-chain (KPL, #14-10-11) were diluted in 10 mM PBS+1% BSA 1:1000 and 100 μl were added to each well and incubated for 1 hour at room temperature. The wells were then washed three times with 100 μl of PBS, pH 7.2. OPD substrate (Pierce chemical company, #34006) was prepared following the manufacturers instructions and 100 μl of prepared substrate was added to each well and the plates incubated at room temperature in the dark for 20-30 minutes. The reaction was stopped with the addition of 100 μl of 2M H₂SO₄, and the plates read on a plate reader at a wavelength of 490 nm.

[3] = molecular target: T1, recombinant HMG1 produced in E. coli as …; experiment: BIAcore 3000, mAb amine-coupled to CM5, HMG1 injected, steady-state model
Description: HMG1 Binding Affinity via BIAcore Analysis: All experiments were performed on a BIAcore 3000 instrument (BIAcore, Inc., Piscataway, N.J.). Briefly, each mAb was immobilized to a CM5 sensor chip using a standard amine coupling chemistry. Separately a reference (control) flow cell was also prepared. Two-fold, serial dilutions of HMG1 in instrument buffer were sequentially injected at a slow flow rate over the individual mAb and reference flow-cell surfaces. Following the binding and dissociation of HMG1, the mAbs surfaces were regenerated with a brief pulse of 1M NaCl-50 mM NaOH. At the end of each experiment, the binding curves were evaluated using a steady-state model available through the BIAevaluation software supplied by BIAcore, Inc. (Piscataway, N.J.).

[4] = molecular target: T3, recombinant rat HMGB-1 labelled with europium (rat, UniProt P63159 1-215, limits assumed, Eu label, molar ratio HMGB-1 to Eu 1:5); experiment: inhibition of binding of 2 nM Eu-labelled recombinant rat HMGB-1 to THP-1 cells
T3 construct: also called Europium-labeled HMGB-1
T3 sequence (looked up): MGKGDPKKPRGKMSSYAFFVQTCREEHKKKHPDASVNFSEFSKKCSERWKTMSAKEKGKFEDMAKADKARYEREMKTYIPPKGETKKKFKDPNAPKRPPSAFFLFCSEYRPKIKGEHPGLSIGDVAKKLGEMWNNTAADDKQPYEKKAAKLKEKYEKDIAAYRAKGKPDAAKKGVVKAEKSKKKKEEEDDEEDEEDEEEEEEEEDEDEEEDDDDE
Description: HMG1 binding to THP-1 Cells: Recombinant rat HMGB-1 was labeled using Eu-labelling Kit from PerkinElmer. Molar ratio of HMGB-1 to Eu is 1:5. THP-1 were cultured as the protocol from ATCC. Cells were harvested and suspended at concentration 1×10⁶/ml in assay buffer containing 1×DELFIA L*R binding buffer (PerkinElmer), 50% of DELFIA stabilizer (PerkinElmer) and 0.05% of sodium azide. 100 μl of cells (1×10⁵) was added into wells in 96 well cell culture plate. The plate was incubated with gentle shaking at 4° C. for one hour. 100 μl of assay buffer containing 2 nM of Europium-labeled HMGB-1 mixed with various concentrations (333, 166.5, 83.25, 41.6, 20.8, 10.4 and 5.2 nM) of human anti-HMGB1 antibodies E11 or G2 or soluble human RAGE-Fc, were added into each wells respectively. After one hour incubation with gentle shaking at 4° C., the cells were washed four times with 1×L*R wash buffer (PerkinElmer) by centrifuging at 1200 rpm×5 min. 200 μl of enhancement solution was added into each well to dissociate and enhance Eu fluorescence at 615 nm. The fluorescence was measured with Wallac Victor Fluorometer. Assay was performed in triplicate and human antibody R3-47 was used the negative isotype control.

[5] = molecular target: T4, HMG1 B Box peptide amino acids 91-169; experiment: ELISA, HMG1 B Box peptide 91-169 coated at 10 ug/ml, antibody titrated, OD 450
T4 construct: also called HMG1 peptide 91-169
T4 peptide: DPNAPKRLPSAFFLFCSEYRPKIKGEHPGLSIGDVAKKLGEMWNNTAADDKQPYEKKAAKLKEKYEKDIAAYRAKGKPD
Description: (§2) The plate was then blocked with 4% milk powder dissolved in PBS at 37° C. for 1 hour. The blocking solution was removed and replaced with human anti-HMG1 antibodies at various concentrations (see FIGS. 5A-B). […] HRP activity was detected with Sureblue HRP substrate (KPL). Plates were read at 450 nm using a Kinetic Microplate Reader (Molecular Devices). […] After washing and blocking with 1% BSA in PBS, the biotinylated peptides were individually added into the avidin coated wells and incubated for 30 min at room temperature. The serial diluted antibody G4, S16 and S6 at the initial concentration at 10 μg/ml were then transferred into the wells followed by adding mouse anti human IgG-HRP conjugate (Pierce). Detection was accomplished by adding 50 μl of tetramethylbenzidine (TMB) substrate (KPL) and the absorbance was read at 450 nm.

[6] = molecular target: T5, HMG1 B Box peptide amino acids 150-183; experiment: ELISA, HMG1 B Box peptide 150-183 coated at 10 ug/ml, antibody titrated, OD 450
T5 peptide: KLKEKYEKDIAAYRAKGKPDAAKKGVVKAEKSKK
Description: as §2

[7] = molecular target: T6, HMG1 purified from calf (bovine) thymus (bovine, UniProt P10103 2-215); experiment: direct ELISA, calf thymus HMGB1 coated at 5 ug/mL, antibody at 10 ug/mL, anti-human kappa/lambda-HRP, OD 490
T6 construct: also called Calf thymus HMGB1; thymus HMG1
T6 sequence (looked up): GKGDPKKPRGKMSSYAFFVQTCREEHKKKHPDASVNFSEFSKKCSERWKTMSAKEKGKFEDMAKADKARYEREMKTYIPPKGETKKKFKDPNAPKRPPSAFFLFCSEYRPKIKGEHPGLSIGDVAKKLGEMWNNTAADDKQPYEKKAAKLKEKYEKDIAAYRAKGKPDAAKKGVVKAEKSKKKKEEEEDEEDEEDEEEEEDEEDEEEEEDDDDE
Description: as §1

[8] = molecular target: T7, activated HMG1 from LPS stimulated THP-1 cells (human, UniProt P09429 1-215); experiment: cell-based or functional assay
T7 sequence (looked up): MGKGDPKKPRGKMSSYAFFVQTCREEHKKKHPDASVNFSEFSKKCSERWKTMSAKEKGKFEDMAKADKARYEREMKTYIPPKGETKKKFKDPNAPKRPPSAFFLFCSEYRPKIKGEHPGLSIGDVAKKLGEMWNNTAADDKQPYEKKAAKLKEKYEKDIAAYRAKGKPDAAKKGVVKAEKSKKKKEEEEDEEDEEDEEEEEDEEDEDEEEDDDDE

[9] = molecular target: T1, recombinant HMG1 produced in E. coli as …; experiment: ELISA, coated RAGE-Fc, rHMG1 preincubated with antibody
Description: HMG1 binding to RAGE-Ig by ELISA: 50 μl/well of RAGE-Fc fusion protein at 5 μg/ml in PBS was added to each well of an ELISA plate and incubated overnight at 4° C. The plate was then blocked with 200 μl of 5% milk at 37° C. for 1 hr and washed 3× with PBS/Tween. 50 μl/well of diluted HMGB1 solution. For dose curves, HMGB1 concentrations started at 4 ug/ml in PBS. For antibody blocking the HMGB1 was preincubated in another plate with human anti-HMG1 antibodies or buffer, then transferred to the RAGE-coated plate. The plates were then incubated at room temperature for 2 hours and washed 3×. To detect any HMG1 bound to the immobilized RAGE-Fc a mixture of biotinylated mouse anti-HMG1 mAbs (10D4, 4H11, 3E10 and 5C12) each at 1 ug/ml, total Ab: 4 ug/ml, were added to each well and the plate was incubated for 1 hour at room temperature. The plate was then washed and Strepavidin-HPR was added to each well and incubated 15 min. The plate was then washed 3× and blotted dry. 100 μl of TMB developing agent was added and the plate read at 650 nm. Values were calculated as percent of inhibition with HMG1 alone equal to 0% inhibition. The data in FIG. 9 and summarized in Table 1 represent the average of two separate experiments.

[10] = molecular target: T1, recombinant HMG1 produced in E. coli as …; experiment: sandwich ELISA: antibody titrated and captured on anti-human IgG Fc, soluble recombinant HMG1 at 2 ug/ml, mouse anti-HMGB1 and anti-mouse IgG-HRP, OD 450
Description: Sandwich ELISA (soluble HMG1): Immunoplates (EIA/RIA plate, High binding, Costar) were coated with anti human IgG Fc at 10 μg/ml in PBS (pH 7.2) and incubated at 4° C. overnight. The coating reagent was removed and the plates were rinsed briefly with PBS. The plates were then blocked with 4% milk for 1 hour at 37° C. and rinsed with PBS. The anti-HMG1 antibodies were diluted in 4% milk. For serial dilutions, the antibodies were used at a starting concentration of 20 μg/ml. The diluted anti-HMG1 antibodies were then added into plate and incubated for 1 hr at 37° C. The plate was then washed 10 times with PBST (PBS/0.1% tween 20) and incubate with antigen (HMGB1, 2 μg/ml; or 0.7 μg/ml for native HMGB1) in 4% milk and incubated at 37° C. for 1 h. The plate was then wash 10 times and incubated with mouse anti-HMGB1, 1 μg/ml in 4% milk at 37° C. for 1 h. The plate was washed 10 times and incubated with anti-mouse IgG-HRP at 1:1000 at 37° C. for 1 h. The plate was then washed and developed. HRP activity was detected with Sureblue HRP substrate (KPL). Plates were read at 450 nm using a Kinetic Microplate Reader (Molecular Devices).

B1: human anti-HMG1 antibody G2 (antibody, IgG1, V domains shown)
VH: EVQLLESGGGLVQPGGSLRLSCAASGFTFSWYKMQWVRQAPGKGLEWVSGISPSGGSTAYADSVKGRFTISRDNSKNTLYLQMNSLRAEDTAVYYCAKMGLFNTGNSYVDYWGQGTLVTVSS
VL: AQSELTQPPSVSEAPGQRVTISCSGSTSNIGNNAVIWYQQLPGKAPKLLIYYDDLLPSGVSDRFSGSKSGTSGSLAISGLQSEDEADYYCASWDDNLNGPLFGGGTKLTVL
notes: full length IgG1 made from a human Fab phage clone
B1 was tested, and the “IC50 IL-1β” value [1] was 5.03 µg/mL, the “IC50 IL-6” value [1] was 0.994 nM and the “IC50 IL-12” value [1] was 1.26 µg/mL. For the same binder, the “IC50 TNF-α” value [1] was 1.35 µg/mL, the binding result [2] was “no binding (tested: 10 ug/mL (single concentration))” and the Kd [3] was 101 nM. The IC50 [4] was 73.3 nM, the binding result [5] was “no binding (tested: 10 ug/ml (log 1.0))” and the binding result [6] was “no binding (tested: 10 ug/ml (log 1.0))”. B1: binds [7].

B2: human anti-HMG1 antibody S17 (antibody, IgG1, V domains shown)
VH: EVQLLESGGGLVQPGGSLRLSCAASGFTFSYYDMHWVRQAPGKGLEWVSRISPSGGYTWYADSVKGRFTISRDNSKNTLYLQMNSLRAEDTAVYYCTRGRYTSGWHEYFDPWGQGTLVTVSS
VL: DIQMTQSPSSLSASVGDRVTITCRASQSIGTYLNWYQQKPGTAPKVLIYAASSLQSGVPSRFSGSGSGTDFTLTISSLQPEDFSTYYCQQSYNTPRTFGQGTKLEIK
notes: as for B1
For B2, the “IC50 IL-1β” value [1] was 0.0809 µg/mL, the “IC50 IL-6” value [1] was 0.162 nM and the “IC50 NO” value [1] was 41.7 µg/mL. For the same binder, the “IC50 nm IL-6 Native HMGB” value [8] was 11.4 nM, the binding result [2] was “no binding (tested: 10 ug/mL (single concentration))” and the Kd [3] was 331 nM. B2: no binding (tested: 10 ug/ml (log 1.0)) [5]; no binding (tested: 10 ug/ml (log 1.0)) [6]; binds [7].

B3: human anti-HMG1 antibody S2 (antibody, V domains shown)
VH: EVQLLESGGGLVQPGGSLRLSCAASGFTFSGYMMVWVRQAPGKGLEWVSRISPSGGQTGYADSVKGRFTISRDNSKNTLYLQMNSLRAEDTAVYYCAREEGGSYGAFDIWGQGTMVTVSS
VL: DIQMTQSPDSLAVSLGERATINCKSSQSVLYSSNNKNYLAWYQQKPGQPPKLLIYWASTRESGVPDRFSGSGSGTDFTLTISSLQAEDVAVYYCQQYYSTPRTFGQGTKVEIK
notes: full length IgG1 made from a human Fab phage clone; also called ATCC PTA-6142
For B3, the “IC50 IL-1β” value [1] was 0.22 µg/mL, the “IC50 IL-6” value [1] was 0.163 nM and the “IC50 TNF-α” value [1] was 0.0642 µg/mL. The “percent inhibition of HMG1 binding to RAGE” value [9] was at least 35%, the binding result [2] was “no binding (tested: 10 ug/mL (single concentration))” and the Kd [3] was 36 nM. B3: no binding (tested: 10 ug/ml (log 1.0)) [5]; no binding (tested: 10 ug/ml (log 1.0)) [6]; binds [7]. For the same binder, the “EC50 (read off the curve)” value [10] was about 0.08 µg/mL.

Source: US20110287023A1 (AstraZeneca / MedImmune, published 2011)
